Experimental data from publication PMC8112865, “In vitro reconstitution reveals major differences between human and bacterial cytochrome c synthases” (eLife, 2021).
Positions of bridges follow the written chain, without caps; N, C: chain ends. No end group written: not given here.

Target: T1, GST-HCCS (human holocytochrome c synthase, GST-tagged) (human, UniProt P53701 1-268)
T1 construct: human HCCS (holocytochrome c synthase), recombinant, from pGEX GST:HCCS; Carries non-covalent heme liganded to His154 (about 10% occupied as purified, about 30% after heme loading); also called holocyt c synthase; mitochondrial cyt c synthase
T1 sequence (looked up): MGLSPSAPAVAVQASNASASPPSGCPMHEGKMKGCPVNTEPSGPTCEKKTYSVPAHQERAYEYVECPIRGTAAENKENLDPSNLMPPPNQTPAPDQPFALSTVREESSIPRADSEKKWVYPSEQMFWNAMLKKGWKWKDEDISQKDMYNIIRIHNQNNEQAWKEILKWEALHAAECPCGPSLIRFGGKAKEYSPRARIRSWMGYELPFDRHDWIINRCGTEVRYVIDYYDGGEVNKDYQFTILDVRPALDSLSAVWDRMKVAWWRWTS
Assay: UV-vis absorption spectroscopy; anaerobic in vitro reaction of purified HCCS with peptide, 5 mM DTT, 37°C, 1 hr; reduced alpha peak at 552-555 nm read as heme-attached peptide still bound to HCCS (550 nm for a free heme-attached peptide)
Settings: both partners purified

B1: heme-attached 16mer (product of the HCCS reaction) (peptide)
peptide: KGKKIFIMKCSQCHTV
modifications: linker 10-13 via heme; also: biotin label, position not given here
notes: stretch of cytochrome c with alpha helix 1 and CXXCH; The product of m6 in the HCCS reaction; source: synthetic peptide (RS-synthesis), heme attached in vitro by GST-HCCS
  binding result: binds
